This passage reports Kd results from PMC7961048 (2021).

Read-outs that look alike come from different tables or passages of the source. Non-standard residues stand in square brackets, D forms with d. No end group written: not given here. *: point of attachment. Biotin = O=C1N[C@H]2[C@H](CS[C@H]2CCCCC(=O)*)N1; pT = C[C@@H](OP(=O)(O)O)[C@H](N)C(=O)O; ttds = NCCCOCCOCCOCCCNC(=O)CCC(=O)* Where only a bound is given, the exact number is not on record here.

B4: full-length human 14-3-3ε fused to the C terminus of MBP (natural protein)
chain: MDDREDLVYQAKLAEQAERYDEMVESMKKVAGMDVELTVEERNLLSVAYKNVIGARRASWRIISSIEQKEENKGGEDKLKMIREYRQMVETELKLICCDILDVLDKHLIPAANTGESKVFYYKMKGDYHRYLAEFATGNDRKEAAENSLVAYKAASDIAMTELPPTHPIRLGLALNFSVFYYEILNSPDRACRLAKAAFDDAIAELDTLSEESYKDSTLIMQLLRDNLTLWTSDMQGDGEEQNKEALQDVEDENQ
B5: full-length human 14-3-3η fused to the C terminus of MBP (natural protein)
chain: MGDREQLLQRARLAEQAERYDDMASAMKAVTELNEPLSNEDRNLLSVAYKNVVGARRSSWRVISSIEQKTMADGNEKKLEKVKAYREKIEKELETVCNDVLSLLDKFLIKNCNDFQYESKVFYLKMKGDYYRYLAEVASGEKKNSVVEASEAAYKEAFEISKEQMQPTHPIRLGLALNFSVFYYEIQNAPEQACLLAKQAFDDAIAELDTLNEDSYKDSTLIMQLLRDNLTLWTSDQQDEEAGEGN
B7: full-length human 14-3-3σ fused to the C terminus of MBP (natural protein)
chain: MERASLIQKAKLAEQAERYEDMAAFMKGAVEKGEELSCEERNLLSVAYKNVVGGQRAAWRVLSSIEQKSNEEGSEEKGPEVREYREKVETELQGVCDTVLGLLDSHLIKEAGDAESRVFYLKMKGDYYRYLAEVATGDDKKRIIDSARSAYQEAMDISKKEMPPTNPIRLGLALNFSVFHYEIANSPEEAISLAKTTFDEAMADLHTLSEDSYKDSTLIMQLLRDNLTLWTADNAGEEGGEAPQEPQS
B8: full-length human 14-3-3τ fused to the C terminus of MBP (natural protein)
chain: MEKTELIQKAKLAEQAERYDDMATCMKAVTEQGAELSNEERNLLSVAYKNVVGGRRSAWRVISSIEQKTDTSDKKLQLIKDYREKVESELRSICTTVLELLDKYLIANATNPESKVFYLKMKGDYFRYLAEVACGDDRKQTIDNSQGAYQEAFDISKKEMQPTHPIRLGLALNFSVFYYEILNNPELACTLAKTAFDEAIAELDTLNEDSYKDSTLIMQLLRDNLTLWTSDSAGEECDAAEGAEN
B9: full-length human 14-3-3β fused to the C terminus of MBP (natural protein)
chain: MTMDKSELVQKAKLAEQAERYDDMAAAMKAVTEQGHELSNEERNLLSVAYKNVVGARRSSWRVISSIEQKTERNEKKQQMGKEYREKIEAELQDICNDVLELLDKYLIPNATQPESKVFYLKMKGDYFRYLSEVASGDNKQTTVSNSQQAYQEAFEISKKEMQPTHPIRLGLALNFSVFYYEILNSPEKACSLAKTAFDEAIAELDTLNEESYKDSTLIMQLLRDNLTLWTSENQGDEGDAGEGEN

What all share (test): FP
Test [1] has as its target B9.
Test [2] has as its target B8.
In test [3] the target is T1, full-length human 14-3-3ζ fused to the C terminus of MBP (human, UniProt P63104 1-245).
T1 chain: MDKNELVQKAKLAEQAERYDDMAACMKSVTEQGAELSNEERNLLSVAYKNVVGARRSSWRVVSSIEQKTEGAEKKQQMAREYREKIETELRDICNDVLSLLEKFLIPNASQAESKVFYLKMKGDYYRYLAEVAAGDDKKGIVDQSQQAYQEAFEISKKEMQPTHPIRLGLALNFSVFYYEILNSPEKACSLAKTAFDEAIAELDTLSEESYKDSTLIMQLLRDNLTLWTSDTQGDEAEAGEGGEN

Test [4] addresses B7.
In test [5] the target is B5.
In test [6] the target is B4.
The target in test [7] is B9.
Test [8] deals with B8.
For test [9], the target named is T1, full-length human 14-3-3ζ fused to the ….
Test [10] concerns the target B7.
For test [11], the target named is B5.
The target of test [12] is T2, full-length human 14-3-3γ fused to the C terminus of MBP (human, UniProt P61981 1-247).
T2 chain: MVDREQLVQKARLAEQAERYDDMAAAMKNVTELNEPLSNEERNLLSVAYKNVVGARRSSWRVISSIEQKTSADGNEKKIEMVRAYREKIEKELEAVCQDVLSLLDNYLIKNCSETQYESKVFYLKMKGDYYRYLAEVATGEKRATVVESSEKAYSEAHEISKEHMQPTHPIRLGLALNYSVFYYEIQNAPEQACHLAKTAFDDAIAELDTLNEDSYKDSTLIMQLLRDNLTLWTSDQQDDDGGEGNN

The target in test [13] is B4.
Test [14] has as its target T3, HPV35 E6 phospho-PBM peptide p35E6 (human papillomavirus type 35).
In test [15] the target is T4, HPV33 E6 phospho-PBM peptide p33E6 (human papillomavirus type 33).
The target in test [16] is T3, HPV35 E6 phospho-PBM peptide p35E6. This is another data set of the same source.
Test [17] deals with T4, HPV33 E6 phospho-PBM peptide p33E6. This is another data set of the same source.

B1: RSK1 phospho-PBM peptide RSK1_-2P (peptide)
peptide: {Biotin-ttds}-RRVRKLPS[pT]TL
On to B1, for which the Kd – broadly, the concentration at which binding is half-saturated – in test [1] amounted to 0.96 µM; in test [2], 0.45 µM; in [3], 1.54 µM; in [4], 3.57 µM; in [5], 0.66 µM; in test [6], 1.22 µM. For the same molecule, the Kd is 1 µM in test [7]; 0.5 µM in [8]; 1.5 µM in test [9]; 3.6 µM in test [10]; 0.7 µM in test [11]; 0.2 µM in test [12]. In addition, in test [13], the Kd turned out to be 1.2 µM.

B2: unfused 14-3-3τ devoid of the flexible C-terminal tail (domain or fragment)
chain: MEKTELIQKAKLAEQAERYDDMATCMKAVTEQGAELSNEERNLLSVAYKNVVGGRRSAWRVISSIEQKTDTSDKKLQLIKDYREKVESELRSICTTVLELLDKYLIANATNPESKVFYLKMKGDYFRYLAEVACGDDRKQTIDNSQGAYQEAFDISKKEMQPTHPIRLGLALNFSVFYYEILNNPELACTLAKTAFDEAIAELDTLNEDSYKDSTLIMQLLRDNLTLWT
For the molecule B2, the Kd in test [14] turned out to be 363 µM; in [15], 5.15 µM.

B3: unfused 14-3-3β devoid of the flexible C-terminal tail (domain or fragment)
chain: MTMDKSELVQKAKLAEQAERYDDMAAAMKAVTEQGHELSNEERNLLSVAYKNVVGARRSSWRVISSIEQKTERNEKKQQMGKEYREKIEAELQDICNDVLELLDKYLIPNATQPESKVFYLKMKGDYFRYLSEVASGDNKQTTVSNSQQAYQEAFEISKKEMQPTHPIRLGLALNFSVFYYEILNSPEKACSLAKTAFDEAIAELDTLNEESYKDSTLIMQLLRDNLTLWT
With B3, the Kd is greater than 400 µM in test [14] and 6.92 µM in test [15].

Consider B4, for which the Kd was greater than 300 µM in [16] and 10.3 µM in test [17].

With B5, the Kd in test [14] turned out to be 163 µM; in [15], 1.98 µM; in [16] it was 163 µM; in [17], 2 µM.

B6: unfused 14-3-3ε devoid of the flexible C-terminal tail (domain or fragment)
chain: MDDREDLVYQAKLAEQAERYDEMVESMKKVAGMDVELTVEERNLLSVAYKNVIGARRASWRIISSIEQKEENKGGEDKLKMIREYRQMVETELKLICCDILDVLDKHLIPAANTGESKVFYYKMKGDYHRYLAEFATGNDRKEAAENSLVAYKAASDIAMTELPPTHPIRLGLALNFSVFYYEILNSPDRACRLAKAAFDDAIAELDTLSEESYKDSTLIMQLLRDNLTLWTS
Turning to B6, the Kd is greater than 300 µM in test [14] and 7.94 µM in [15].

Turning to B7, the Kd is 6.77 µM in test [15], greater than 300 µM in [16] and 6.8 µM in test [17].

For B8, the Kd in test [14] was 233 µM; in [15], 3.52 µM; in test [16], 233 µM; in test [17], 3.5 µM.

Take B9: the results for the Kd in test [15], in test [16] and in [17] were 4.05 µM, greater than 300 µM and 4.1 µM, respectively.
